Results taken from paper PMC7278498, “Crystal structures of the GH18 domain of the bifunctional peroxiredoxin–chitinase CotE from Clostridium difficile” (Acta Crystallographica. Section F, Structural Biology …, 2020).

Assays:
[1] = target: T1, pentapeptide Gly-Pro-Ala-Met-Lys (C. difficile); experiment: crystal structure; monoclinic form, P2_(1), 1.3 Å; 200 mM ammonium phosphate, 22.5% PEG 3350, 291 K; one protein molecule per asymmetric unit; peptide found in the active-site groove; details: both partners purified
T1 construct: residues 349 and 350 of CotE of Clostridium difficile; the side chain of residue 5 (Lys) is uncertain in the density; also called GPAMK; pentapeptide ligand; source: derived from the N-terminus of the E. coli-made CotE(349–712) after HRV 3C protease cleavage; co-purified and co-crystallised with the protein

[2] = target: the molecule itself; experiment: crystal structure; hexagonal form, P6_(1)22, ∼2.1 Å; protein washed with 2 M guanidine hydrochloride on the Ni column (partially unfolded/refolded), tag then removed; 0.1 M sodium malonate pH 5.5, 13% PEG 3350, C8E5; dimer formed with a crystallographic symmetry mate

B1: CotE(349–712), C-terminal fragment of CotE comprising the GH18 chitinase domain (domain or fragment)
chain: GPAMKTLKDSKKLVRPQITDPYNPIVENANCPDINPIVAEYVLGNPTNVDAQLLDAVIFAFAEIDQSGNLFIPYPRFLNQLLALKGEKPSLKVIVAIGGWGAEGFSDAALTPTSRYNFARQVNQMINEYALDGIDIDWEYPGSSASGITSRPQDRENFTLLLTAIRDVIGDDKWLSVAGTGDRGYINSSAEIDKIAPIIDYFNLMSYDFTAGETGPNGRKHQANLFDSDLSLPGYSVDAMVRNLENAGMPSEKILLGIPFYGRLGATITRTYDELRRDYINKNGYEYRFDNTAQVPYLVKDGDFAMSYDDALSIFLKTQYVLRNCLGGVFSWTSTYDQANILARTMSIGINDPEVLKEELEGIYGQF
notes: CotE spore coat protein (peroxiredoxin-chitinase) of Clostridium difficile, residues 349-712; In the monoclinic crystal the model holds Ile363-Phe712; In the hexagonal crystal the protein is a 3D domain-swapped dimer with an intermolecular Cys376-Cys670 disulfide; also called CotE chitinase domain; chitinase domain of CotE; source: E. coli BL21(DE3), purified (HisTrap, HRV 3C cleavage, second …)
With B1 the binding result [1] was “binds” and the “stoichiometry N” value [2] was 2.
